This test is described as follows: Fatty acid binding of fluorescently labeled I-FABP probes (fluorescence ratio). Conditions: FFA binding; ADIFAB2 compared with ADIFAB. Here is the method: In a preferred embodiment, a fluorescently-labeled FABP is acrylodan-derived recombinant rat intestinal fatty acid binding protein (referred to as ADIFAB). Derivatization with acrylodan was performed using known methods substantially as previously described (U.S. Pat. No. 5,470,714 & Richieri, G. V, et al., J. Biol. Chem., (1992) […]: 23495–23501), and ADIFAB is commercially available (FFA Sciences LLC, San Diego, Calif. ). Concentrations of FFAu can be determined by the binding of the FFAu to the fluorescently labeled fatty acid binding protein (FABP). […] The concentration of FFAu can be determined from the fluorescence difference. […] It will be understood that those skilled in the art can readily substitute other fluorescently-labeled FABP in the disclosed assay.
The assay for determination of FFAu levels in aqueous samples measures the intensity of a shift in fluorescence from a first wavelength, at which the derivatized FABP fluoresces when no FFA is bound, to a second wavelength, at which the derivatized FABP fluoresces when a molecule of FFA is bound, and the concentration of FFAu is then determined from the ratio (“R” value) of the two intensities of fluorescence wavelengths as described in U.S. Pat. No. 5,470,714 and Richieri, et al. (1995) J. Lipid Research, vol. […] Briefly, the ratio is calculated using the following formula: […]

B1: ADIFAB2: acrylodan-derivatized rat intestinal fatty acid binding protein (I-FABP) with substitution of Ala for Leu at position 72 (protein, UniProt P02693 2-132, looked up, variant L72A)
Fatty acid-binding protein, …: AFDGTWKVDRNENYEKFMEKMGINVVKRKLGAHDNLKLTITQEGNKFTVKESSNFRNIDVVFELGVDFAYSAADGTELTGTWTMEGNKLVGKFKRVDNGKELIAVREISGNELIQTYTYEGVEAKRIFKKE
modifications: acrylodan label
For the molecule B1, the “binding affinities relative to ADIFAB” value is on record as “about 10 fold”.

The record behind these values is patent publication US7202089B2, “Early diagnosis of stroke” (priority 2001, dated 2007).
